Test results reported in patent publication US20240417469A1 (CONCEPT TO MEDICINE BIOTECH, published 2024).

How the values were obtained:
[1] = target: T1, human CD3 on cells (human PBMC; Jurkat TCR/CD3 NFAT reporter cells) (human, UniProt P07766 23-207; P04234 22-171; P09693 23-182); assay: cell-based or functional assay
[2] = target: T2, human CD3 protein (human, UniProt P07766 23-126; P04234 22-105); assay: ELISA, plate-coated CD3;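 also: binding to plate-immobilized human CD3 protein, bound antibody detected with peroxidase-labelled anti-human IgG and TMB, read as absorbance at 450 nm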
T2 construct: ELISA coating protein; also called Human CD3D & CD3E Heterodimer Protein
T2 sequence (P07766 23-126 limits assumed, chain 1 of 2): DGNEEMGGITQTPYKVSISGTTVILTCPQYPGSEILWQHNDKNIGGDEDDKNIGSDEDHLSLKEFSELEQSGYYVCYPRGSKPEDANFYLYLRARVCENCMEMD
T2 sequence (P04234 22-105 limits assumed, chain 2 of 2): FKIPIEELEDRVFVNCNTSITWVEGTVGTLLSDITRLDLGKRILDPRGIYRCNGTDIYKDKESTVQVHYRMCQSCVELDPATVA

[3] = target: T3, recombinant CD3D&E protein (human CD3-his tag) (human, UniProt P04234 22-105; P07766 23-126, limits assumed); assay: SPR Biacore, Ab captured on Protein A;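 also: humanized antibodies on a Protein A chip, human CD3-his analyte flowed over in serial dilutions for 3 min, dissociation tracked 120–360 s on a Biacore T200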
T3 construct: Analyte in Biacore; also called CD3D&E-His; CD3d&ε-His
T3 sequence (P04234 22-105 limits assumed, chain 1 of 2): as the sequence (P04234 22-105 limits assumed, chain 2 of 2) above
T3 sequence (P07766 23-126 limits assumed, chain 2 of 2): as the sequence (P07766 23-126 limits assumed, chain 1 of 2) above

[4] = target: T1, human CD3 on cells (human PBMC; Jurkat …); assay: cell-based or functional assay; remark: listed apart in the source
For Emax in this document: unit not given here.

T1 sequence (P07766 23-207, chain 1 of 3): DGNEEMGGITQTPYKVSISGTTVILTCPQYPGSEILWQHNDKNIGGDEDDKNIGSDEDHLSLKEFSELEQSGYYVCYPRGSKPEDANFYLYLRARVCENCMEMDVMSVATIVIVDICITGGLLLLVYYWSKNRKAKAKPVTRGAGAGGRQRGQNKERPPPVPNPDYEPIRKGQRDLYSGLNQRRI
T1 sequence (P04234 22-171, chain 2 of 3): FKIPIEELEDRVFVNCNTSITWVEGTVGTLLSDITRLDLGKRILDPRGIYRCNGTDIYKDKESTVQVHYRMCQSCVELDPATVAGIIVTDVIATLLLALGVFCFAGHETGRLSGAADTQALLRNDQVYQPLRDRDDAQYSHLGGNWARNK
T1 sequence (P09693 23-182, chain 3 of 3): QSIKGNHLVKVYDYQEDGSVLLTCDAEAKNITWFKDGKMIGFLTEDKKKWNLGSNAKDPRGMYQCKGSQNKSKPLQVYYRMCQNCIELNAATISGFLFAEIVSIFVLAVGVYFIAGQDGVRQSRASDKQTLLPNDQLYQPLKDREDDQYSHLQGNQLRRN

B1: Hu153A6B1-15 (antibody, V domains shown)
VH: EVQLQESGPGLVKPSETLSLTCTVSGGSISSYNIHWVRQPPGKGLEWMGRIRYNGDTSYNSALKSRLTISRDTSKNQFSLKLSSVTAADTAVYYCARGPYGGSREPLFDYWGQGTMVTVSS
VL: DIQMTQSPSSLSASVGDRVTITCKTSQNINKYLNWFQQKPGKAPKLLIYTTNNLQTGIPSRFSGSGSGTDFTLTISSLQPEDFATYFCLQHGSGYTFGQGTKLEIK
notes: humanized mAb
% of SP34 [1]: 75.2% | Emax [1]: 4150 | EC50 [2]: 3.03 ng/mL | Kd [3]: 76.2 nM | koff [3]: 0.0151 s⁻¹ | kon [3]: 198000 M⁻¹ s⁻¹ | CD3-NFAT Activity by CD3 mAb [4]: > 50 % SP34

B2: Hu155A9B1-1 (antibody, V domains shown)
VH: EVQLQESGPGLVKPSETLSLTCTVSGGSISSYNVHWIRQPPGKGLEWIGRVRYNGDTSYNSALKSRVTISVDTSKNQFSLKLSSVTAADTAVYYCARGPYGGSSEPLFDYWGQGTMVTVSS
VL: DIQMTQSPSSLSASVGDRVTITCKASQNINKYLNWYQQKPGKAPRLLIYTTNNLQTGVPSRFSGSGSGTDFTLTISSLQPEDFATYYCLQHNSGYTFGQGTKLEIK
notes: humanized mAb
% of SP34 [1]: 14.2% | Emax [1]: 720 | EC50 [2]: 428 ng/mL | Kd [3]: 40.4 nM | koff [3]: 0.00441 s⁻¹ | kon [3]: 109000 M⁻¹ s⁻¹ | CD3-NFAT Activity by CD3 mAb [4]: ≤ 50 % SP34

B3: Hu155A9B1-4 (antibody, V domains shown)
VH: EVQLQESGPGLVKPSETLSLTCTVSGGSISSYNVHWVRQPPGKGLEWMGRVRYNGDTSYNSALKSRLTISRDTSKNQFSLKLSSVTAADTAVYYCTRGPYGGSSEPLFDYWGQGTMVTVSS
VL: DIQMTQSPSSLSASVGDRVTITCKASQNINKYLNWYQQKPGKAPRLLIYTTNNLQTGVPSRFSGSGSGTDFTLTISSLQPEDFATYYCLQHNSGYTFGQGTKLEIK
notes: humanized mAb
% of SP34 [1]: 14.8% | Emax [1]: 752 | EC50 [2]: 16.4 ng/mL | Kd [3]: 15.8 nM | koff [3]: 0.00648 s⁻¹ | kon [3]: 409000 M⁻¹ s⁻¹ | CD3-NFAT Activity by CD3 mAb [4]: ≤ 50 % SP34

B4: Hu153A6B1-18 (antibody, V domains shown)
VH: EVQLQESGPGLVKPSETLSLTCTVSGFSLTSYNIHWVRQPPGKGLEWMGRIRYNGDTSYNSALKSRLTISRDTSKNQVSLKLSSVTAADTAVYYCTRGPYGGSREPLFDYWGQGTMVTVSS
VL: DIQMTQSPSSLSASVGDRVTITCKTSQNINKYLNWFQQKPGKAPKLLIYTTNNLQTGIPSRFSGSGSGTDFTLTISSLQPEDFATYFCLQHGSGYTFGQGTKLEIK
notes: humanized mAb
% of SP34 [1]: 88.8% | Emax [1]: 4900 | EC50 [2]: 2.82 ng/mL | Kd [3]: 12.5 nM | koff [3]: 0.00107 s⁻¹ | kon [3]: 85400 M⁻¹ s⁻¹ | CD3-NFAT Activity by CD3 mAb [4]: > 50 % SP34

B5: Hu153A6B1-16 (antibody, V domains shown)
VH: EVQLQESGPGLVKPSETLSLTCTVSGGSISSYNIHWVRQPPGKGLEWMGRIRYNGDTSYNSALKSRLTISRDTSKNQFSLKLSSVTAADTAVYYCTRGPYGGSREPLFDYWGQGTMVTVSS
VL: DIQMTQSPSSLSASVGDRVTITCKTSQNINKYLNWFQQKPGKAPKLLIYTTNNLQTGIPSRFSGSGSGTDFTLTISSLQPEDFATYFCLQHGSGYTFGQGTKLEIK
notes: humanized mAb
% of SP34 [1]: 71.9% | Emax [1]: 3970 | EC50 [2]: 3.44 ng/mL | Kd [3]: 61.9 nM | koff [3]: 0.111 s⁻¹ | kon [3]: 1.8e+06 M⁻¹ s⁻¹ | CD3-NFAT Activity by CD3 mAb [4]: > 50 % SP34

B6: Hu153A6B1-17 (antibody, V domains shown)
VH: EVQLQESGPGLVKPSETLSLTCTVSGFSISSYNIHWVRQPPGKGLEWMGRIRYNGDTSYNSALKSRLTISRDTSKNQVSLKLSSVTAADTAVYYCTRGPYGGSREPLFDYWGQGTMVTVSS
VL: DIQMTQSPSSLSASVGDRVTITCKTSQNINKYLNWFQQKPGKAPKLLIYTTNNLQTGIPSRFSGSGSGTDFTLTISSLQPEDFATYFCLQHGSGYTFGQGTKLEIK
notes: humanized mAb
% of SP34 [1]: 77.2% | Emax [1]: 4260 | EC50 [2]: 2.89 ng/mL | Kd [3]: 11.1 nM | koff [3]: 0.00106 s⁻¹ | kon [3]: 95400 M⁻¹ s⁻¹ | CD3-NFAT Activity by CD3 mAb [4]: > 50 % SP34

B7: Hu155A9B1-8 (antibody, V domains shown)
VH: EVQLQESGPGLVKPSETLSLTCTVSGGSISSYNVHWVRQPPGKGLEWIGRVRYNGDTSYNSALKSRVTISRDTSKNQFSLKLSSVTAADTAVYYCARGPYGGSSEPLFDYWGQGTMVTVSS
VL: DIQMTQSPSSLSASVGDRVTITCKASQNINKYLNWFQQKPGKAPRLLIYTTNNLQTGIPSRFSGSGSGTDFTLTISSLQPEDFATYYCLQHNSGYTFGQGTKLEIK
notes: humanized mAb; also called 155z8
% of SP34 [1]: 26.2% | Emax [1]: 1330 | EC50 [2]: 5.84 ng/mL | Kd [3]: 70.2 nM | koff [3]: 0.0159 s⁻¹ | kon [3]: 226000 M⁻¹ s⁻¹ | CD3-NFAT Activity by CD3 mAb [4]: ≤ 50 % SP34

B8: Hu155A9B1-7 (antibody, V domains shown)
VH: EVQLQESGPGLVKPSETLSLTCTVSGGSISSYNVHWIRQPPGKGLEWIGRVRYNGDTSYNSALKSRVTISVDTSKNQFSLKLSSVTAADTAVYYCARGPYGGSSEPLFDYWGQGTMVTVSS
VL: DIQMTQSPSSLSASVGDRVTITCKASQNINKYLNWFQQKPGKAPRLLIYTTNNLQTGIPSRFSGSGSGTDFTLTISSLQPEDFATYYCLQHNSGYTFGQGTKLEIK
notes: humanized mAb
% of SP34 [1]: 22.6% | Emax [1]: 1140 | EC50 [2]: 136 ng/mL | Kd [3]: 13.5 nM | koff [3]: 0.00547 s⁻¹ | kon [3]: 406000 M⁻¹ s⁻¹ | CD3-NFAT Activity by CD3 mAb [4]: ≤ 50 % SP34

B9: Hu155A9B1-9 (antibody, V domains shown)
VH: EVQLQESGPGLVKPSETLSLTCTVSGGSISSYNVHWVRQPPGKGLEWMGRVRYNGDTSYNSALKSRLTISRDTSKNQFSLKLSSVTAADTAVYYCARGPYGGSSEPLFDYWGQGTMVTVSS
VL: DIQMTQSPSSLSASVGDRVTITCKASQNINKYLNWFQQKPGKAPRLLIYTTNNLQTGIPSRFSGSGSGTDFTLTISSLQPEDFATYYCLQHNSGYTFGQGTKLEIK
notes: humanized mAb
% of SP34 [1]: 34.9% | Emax [1]: 1770 | EC50 [2]: 6.28 ng/mL | Kd [3]: 55 nM | koff [3]: 0.0155 s⁻¹ | kon [3]: 282000 M⁻¹ s⁻¹ | CD3-NFAT Activity by CD3 mAb [4]: ≤ 50 % SP34

B10: Hu155A9B1-5 (antibody, V domains shown)
VH: EVQLQESGPGLVKPSETLSLTCTVSGFSISSYNVHWVRQPPGKGLEWMGRVRYNGDTSYNSALKSRLTISRDTSKNQASLKLSSVTAADTAVYYCTRGPYGGSSEPLFDYWGQGTMVTVSS
VL: DIQMTQSPSSLSASVGDRVTITCKASQNINKYLNWYQQKPGKAPRLLIYTTNNLQTGVPSRFSGSGSGTDFTLTISSLQPEDFATYYCLQHNSGYTFGQGTKLEIK
notes: humanized mAb; also called 155z5
% of SP34 [1]: 79.9% | Emax [1]: 4050 | EC50 [2]: 3.27 ng/mL | Kd [3]: 61.4 nM | koff [3]: 0.00637 s⁻¹ | kon [3]: 104000 M⁻¹ s⁻¹ | CD3-NFAT Activity by CD3 mAb [4]: > 50 % SP34

B11: Hu155A9B1-10 (antibody, V domains shown)
VH: EVQLQESGPGLVKPSETLSLTCTVSGGSISSYNVHWVRQPPGKGLEWMGRVRYNGDTSYNSALKSRLTISRDTSKNQFSLKLSSVTAADTAVYYCTRGPYGGSSEPLFDYWGQGTMVTVSS
VL: DIQMTQSPSSLSASVGDRVTITCKASQNINKYLNWFQQKPGKAPRLLIYTTNNLQTGIPSRFSGSGSGTDFTLTISSLQPEDFATYYCLQHNSGYTFGQGTKLEIK
notes: humanized mAb
% of SP34 [1]: 24% | Emax [1]: 1380 | EC50 [2]: 6.04 ng/mL | Kd [3]: 80.5 nM | koff [3]: 0.015 s⁻¹ | kon [3]: 187000 M⁻¹ s⁻¹ | CD3-NFAT Activity by CD3 mAb [4]: ≤ 50 % SP34

B12: Hu155A9B1-11 (antibody, V domains shown)
VH: EVQLQESGPGLVKPSETLSLTCTVSGFSISSYNVHWVRQPPGKGLEWMGRVRYNGDTSYNSALKSRLTISRDTSKNQASLKLSSVTAADTAVYYCTRGPYGGSSEPLFDYWGQGTMVTVSS
VL: DIQMTQSPSSLSASVGDRVTITCKASQNINKYLNWFQQKPGKAPRLLIYTTNNLQTGIPSRFSGSGSGTDFTLTISSLQPEDFATYYCLQHNSGYTFGQGTKLEIK
notes: humanized mAb
% of SP34 [1]: 78.4% | Emax [1]: 4500 | EC50 [2]: 3.2 ng/mL | Kd [3]: 44.1 nM | koff [3]: 0.00306 s⁻¹ | kon [3]: 69300 M⁻¹ s⁻¹ | CD3-NFAT Activity by CD3 mAb [4]: > 50 % SP34

B13: Hu155A9B1-2 (antibody, V domains shown)
VH: EVQLQESGPGLVKPSETLSLTCTVSGGSISSYNVHWVRQPPGKGLEWIGRVRYNGDTSYNSALKSRVTISRDTSKNQFSLKLSSVTAADTAVYYCARGPYGGSSEPLFDYWGQGTMVTVSS
VL: DIQMTQSPSSLSASVGDRVTITCKASQNINKYLNWYQQKPGKAPRLLIYTTNNLQTGVPSRFSGSGSGTDFTLTISSLQPEDFATYYCLQHNSGYTFGQGTKLEIK
notes: humanized mAb
% of SP34 [1]: 12.9% | Emax [1]: 656 | EC50 [2]: 26.4 ng/mL | Kd [3]: 15.8 nM | koff [3]: 0.00704 s⁻¹ | kon [3]: 445000 M⁻¹ s⁻¹ | CD3-NFAT Activity by CD3 mAb [4]: ≤ 50 % SP34
